# Test results reported in US20250076311A1 (Chugai, published 2025).
# Positions count from the first letter of the chain named.
# T1: cynomolgus monkey FcγRIIIaS extracellular domain with C-terminal His-tag (cynomolgus monkey, UniProt Q8SPW2 21-206 at identity 1.00))
# T1 construct: also called cyno FcgRIIIaS; cynoFcγRIIIaS
# T1 chain: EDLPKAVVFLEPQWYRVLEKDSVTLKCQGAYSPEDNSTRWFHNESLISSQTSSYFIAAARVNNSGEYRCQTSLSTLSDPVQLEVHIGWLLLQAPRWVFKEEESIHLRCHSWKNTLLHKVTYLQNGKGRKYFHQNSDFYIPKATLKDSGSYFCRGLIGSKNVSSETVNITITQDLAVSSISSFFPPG
# T2: cynomolgus monkey FcγRIIb extracellular domain, His-tagged (cynomolgus monkey)
# T2 construct: also called cyno FcγRIIb; cynoFcγRIIb; not shown: C-terminal His-tag
# T2 chain: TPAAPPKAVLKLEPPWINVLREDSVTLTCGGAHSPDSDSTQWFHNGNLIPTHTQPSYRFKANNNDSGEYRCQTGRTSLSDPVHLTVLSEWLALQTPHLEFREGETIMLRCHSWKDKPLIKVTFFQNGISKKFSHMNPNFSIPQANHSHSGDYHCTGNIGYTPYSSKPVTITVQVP
# T3: cynomolgus monkey FcγRIIa2 extracellular domain, His-tagged (cynomolgus monkey)
# T3 construct: also called cyno FcγRIIa2; cynoFcgRIIa2; not shown: C-terminal His-tag
# T3 chain: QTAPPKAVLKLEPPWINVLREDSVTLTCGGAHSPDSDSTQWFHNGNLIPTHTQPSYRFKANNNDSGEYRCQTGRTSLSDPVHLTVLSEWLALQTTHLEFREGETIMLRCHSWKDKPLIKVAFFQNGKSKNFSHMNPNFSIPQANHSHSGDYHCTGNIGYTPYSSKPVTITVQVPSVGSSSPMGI
# T4: cynomolgus monkey FcγRIIa1 extracellular domain, His-tagged (cynomolgus monkey)
# T4 construct: also called cyno FcγRIIa1; cynoFcgRIIa1; not shown: C-terminal His-tag
# T4 chain: T3 chain with T95P, A121T, K127I, S128A, N130K, N135D, Q142R
# T5: cynomolgus monkey FcγRIIa1 extracellular domain with C-terminal His-tag (cynomolgus monkey)
# T5 construct: also called cyno FcgRIIa1; cynoFcγRIIa1; not shown: His-tag added to the C-terminus
# T5 chain: T3 chain with T95P, A121T, K127I, S128A, N130K, N135D, Q142R
# T6: cynomolgus monkey FcγRIIa3 extracellular domain with C-terminal His-tag (cynomolgus monkey)
# T6 construct: also called cyno FcgRIIa3; cynoFcγRIIa3; not shown: His-tag added to the C-terminus
# T6 chain: T3 chain with K127I, N130K, H133P, Q142R
# T7: human FcγRIIaR extracellular domain, His-tagged (human, UniProt P12318 34-217)
# T7 construct: also called human FcγRIIa (type R); FcgRIIaR; not shown: C-terminal His-tag
# T7 chain: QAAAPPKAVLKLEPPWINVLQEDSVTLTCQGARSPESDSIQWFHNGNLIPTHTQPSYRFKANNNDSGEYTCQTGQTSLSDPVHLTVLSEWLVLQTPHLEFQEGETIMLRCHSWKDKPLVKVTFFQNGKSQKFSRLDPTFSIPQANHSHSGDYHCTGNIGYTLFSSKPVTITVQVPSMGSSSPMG
# T8: cynomolgus monkey FcγRIIa3 extracellular domain, His-tagged (cynomolgus monkey)
# T8 construct: also called cyno FcγRIIa3; cynoFcgRIIa3; not shown: C-terminal His-tag
# T8 chain: T3 chain with K127I, N130K, H133P, Q142R
# T9: human FcγRIIb extracellular domain, His-tagged (human, UniProt P31994 43-217)
# T9 construct: also called FcgRIIb (human); not shown: C-terminal His-tag
# T9 sequence: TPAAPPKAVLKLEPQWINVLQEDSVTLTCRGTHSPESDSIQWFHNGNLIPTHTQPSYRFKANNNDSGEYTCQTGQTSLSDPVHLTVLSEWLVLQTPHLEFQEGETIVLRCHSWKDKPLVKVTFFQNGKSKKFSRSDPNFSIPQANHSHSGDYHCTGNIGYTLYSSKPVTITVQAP
# B1: MS1032LO06-MY335 (antibody, human IgG1, kappa)
# heavy: QVTLKESGPVLVKPTETLTLTCTVSGIDLSHDDISWVRQAPGKGLEWVGIISYAGSTYYASWAKGRLTISKDTSKNQVVLTMTNMDPVDTATYYCARGVPAYSHGGDLWGQGTLVTVSSASTKGPSVFPLAPSSKSTSGGTAALGCLVKDYFPEPVTVSWNSGALTSGVHTFPAVLQSSGLYSLSSVVTVPSSSLGTQTYICNVNHKPSNTKVDKKVEPKSCDKTHTCPPCPAPELLTGPSVFLFPPKPKDTLMISRTPEVTCVVVDVSDEDPEVKFNWYVDGVEVHNAKTKPREEQYNSTYRVVSVLTVLHRDWLNGKEYKCKVSNKALPKPIEKTISKAKGQPREPQVYTLPPSREEMTKNQVSLTCLVKGFYPSDIAVEWESNGQPENNYKTTPPVLDSDGSFFLYSKLTVKKSRWQQGNVFSCSVMHEALHNHYTQKSLSLSP
# light: DIVMTQSPATLSLSPGERATLSCTSSQSVYHANWLSWFQQKPGQPPKLLIYWASTLAYGVPSRFSGSGSGTDFTLTISSLQPEDAATYYCAGGYGGGRYAFGQGTKVEIKRTVAAPSVFIFPPSDEQLKSGTASVVCLLNNFYPREAKVQWKVDNALQSGNSQESVTEQDSKDSTYSLSSTLTLSKADYEKHKVYACEVTHQGLSSPVTKSFNRGEC
# notes: also called M103205H795-MY335; copies: 2 + 2
# B2: M103205H795-MY013/M103202L889-SK1 (antibody, human IgG1, kappa, name in EU numbering)
# heavy: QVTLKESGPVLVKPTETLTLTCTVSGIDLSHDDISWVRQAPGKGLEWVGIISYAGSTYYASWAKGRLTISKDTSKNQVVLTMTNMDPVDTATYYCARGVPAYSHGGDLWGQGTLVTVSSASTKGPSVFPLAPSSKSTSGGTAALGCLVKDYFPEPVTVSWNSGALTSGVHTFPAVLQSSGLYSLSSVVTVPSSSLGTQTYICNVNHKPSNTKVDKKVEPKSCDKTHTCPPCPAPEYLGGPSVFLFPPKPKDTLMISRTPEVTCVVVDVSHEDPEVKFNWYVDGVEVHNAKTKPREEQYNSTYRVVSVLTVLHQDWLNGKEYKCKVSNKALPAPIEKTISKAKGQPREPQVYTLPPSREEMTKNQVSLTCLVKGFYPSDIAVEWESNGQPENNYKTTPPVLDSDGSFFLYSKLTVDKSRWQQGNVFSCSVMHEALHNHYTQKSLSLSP
# light: B1 light
# notes: Substitution introduced into M103205H795-SG1; EU numbering
# B3: M103205H795-MY073/M103202L889-SK1 (antibody, human IgG1, kappa, name in EU numbering)
# heavy: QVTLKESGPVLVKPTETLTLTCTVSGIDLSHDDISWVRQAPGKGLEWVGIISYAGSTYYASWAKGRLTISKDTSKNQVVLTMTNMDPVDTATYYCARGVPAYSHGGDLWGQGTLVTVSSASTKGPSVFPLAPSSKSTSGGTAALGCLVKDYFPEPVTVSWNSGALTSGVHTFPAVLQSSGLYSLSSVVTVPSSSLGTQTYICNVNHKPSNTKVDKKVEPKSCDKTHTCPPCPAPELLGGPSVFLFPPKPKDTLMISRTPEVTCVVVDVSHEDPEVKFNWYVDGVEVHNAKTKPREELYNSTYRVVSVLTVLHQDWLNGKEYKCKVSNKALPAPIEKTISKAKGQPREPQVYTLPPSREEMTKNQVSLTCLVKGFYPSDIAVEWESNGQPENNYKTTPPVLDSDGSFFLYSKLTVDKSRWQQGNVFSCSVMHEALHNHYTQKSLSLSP
# light: B1 light
# notes: as for B2
# B4: MS1032LO06-MY344 (antibody, human IgG1, kappa)
# heavy: B1 heavy with T238N, Q297L
# light: B1 light
# notes: also called M103205H795-MY344; copies: 2 + 2
# B5: M103205H795-MY011/M103202L889-SK1 (antibody, human IgG1, kappa, name in EU numbering)
# heavy: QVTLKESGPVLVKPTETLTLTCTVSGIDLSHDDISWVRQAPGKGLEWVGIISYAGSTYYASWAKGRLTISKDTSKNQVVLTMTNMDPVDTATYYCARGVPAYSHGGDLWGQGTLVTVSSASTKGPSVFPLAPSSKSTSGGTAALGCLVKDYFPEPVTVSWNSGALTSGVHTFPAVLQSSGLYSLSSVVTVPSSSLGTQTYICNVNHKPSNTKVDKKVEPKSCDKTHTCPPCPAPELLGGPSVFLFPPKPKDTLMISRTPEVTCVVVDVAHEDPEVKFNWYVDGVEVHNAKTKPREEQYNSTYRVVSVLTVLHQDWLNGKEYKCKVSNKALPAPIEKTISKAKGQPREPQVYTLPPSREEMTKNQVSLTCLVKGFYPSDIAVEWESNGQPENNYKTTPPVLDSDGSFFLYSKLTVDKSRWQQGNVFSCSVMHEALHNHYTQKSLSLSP
# light: B1 light
# notes: as for B2
# B6: M103205H795-MY070/M103202L889-SK1 (antibody, human IgG1, kappa, name in EU numbering)
# heavy: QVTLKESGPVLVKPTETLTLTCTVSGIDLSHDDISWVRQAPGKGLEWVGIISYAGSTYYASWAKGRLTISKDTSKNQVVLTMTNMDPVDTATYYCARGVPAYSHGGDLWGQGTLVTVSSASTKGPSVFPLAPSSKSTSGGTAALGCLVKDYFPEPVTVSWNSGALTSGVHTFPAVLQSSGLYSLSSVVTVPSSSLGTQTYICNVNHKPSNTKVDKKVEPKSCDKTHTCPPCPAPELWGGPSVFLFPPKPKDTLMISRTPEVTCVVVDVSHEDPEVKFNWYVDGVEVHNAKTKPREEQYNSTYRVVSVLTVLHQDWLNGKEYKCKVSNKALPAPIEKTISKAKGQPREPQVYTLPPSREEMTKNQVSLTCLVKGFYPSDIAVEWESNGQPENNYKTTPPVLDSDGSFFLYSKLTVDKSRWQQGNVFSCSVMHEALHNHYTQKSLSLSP
# light: B1 light
# notes: as for B2
# B7: M103205H795-MY048/M103202L889-SK1 (antibody, human IgG1, kappa, name in EU numbering)
# heavy: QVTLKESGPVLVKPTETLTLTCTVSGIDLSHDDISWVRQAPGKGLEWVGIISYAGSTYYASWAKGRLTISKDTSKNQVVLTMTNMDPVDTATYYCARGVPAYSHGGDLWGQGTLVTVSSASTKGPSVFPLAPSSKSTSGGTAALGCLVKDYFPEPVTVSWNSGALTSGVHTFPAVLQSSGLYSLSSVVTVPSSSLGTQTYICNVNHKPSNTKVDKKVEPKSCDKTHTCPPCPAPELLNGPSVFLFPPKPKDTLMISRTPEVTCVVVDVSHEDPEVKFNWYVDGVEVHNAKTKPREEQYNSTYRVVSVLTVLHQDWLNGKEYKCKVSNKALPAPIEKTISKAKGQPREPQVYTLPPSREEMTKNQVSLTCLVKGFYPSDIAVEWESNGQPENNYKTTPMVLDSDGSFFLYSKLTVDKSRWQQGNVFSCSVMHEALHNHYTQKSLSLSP
# light: B1 light
# notes: Fc variant of MS1032LO06-SG1; positions in EU numbering
# B8: M103205H795-MY052/M103202L889-SK1 (antibody, human IgG1, kappa, name in EU numbering)
# heavy: B1 heavy with T238N, D270E, R313Q, K332A, P398M, K415D
# light: B1 light
# notes: as for B7
# B9: M103205H795-MY042/M103202L889-SK1 (antibody, human IgG1, kappa, name in EU numbering)
# heavy: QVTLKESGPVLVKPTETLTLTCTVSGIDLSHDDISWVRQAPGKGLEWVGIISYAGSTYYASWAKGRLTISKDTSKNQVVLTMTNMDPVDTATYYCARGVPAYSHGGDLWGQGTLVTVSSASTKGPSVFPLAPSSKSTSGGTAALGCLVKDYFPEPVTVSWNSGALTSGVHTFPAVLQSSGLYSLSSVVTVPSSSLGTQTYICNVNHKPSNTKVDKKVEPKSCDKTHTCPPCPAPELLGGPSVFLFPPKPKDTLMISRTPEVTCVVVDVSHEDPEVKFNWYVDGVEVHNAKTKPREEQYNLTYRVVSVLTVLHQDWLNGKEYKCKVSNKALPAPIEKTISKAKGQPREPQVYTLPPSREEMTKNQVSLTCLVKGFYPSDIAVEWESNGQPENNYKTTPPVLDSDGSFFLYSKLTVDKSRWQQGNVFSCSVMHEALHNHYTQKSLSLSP
# light: B1 light
# notes: as for B2
# B10: MS1032LO06-PK2 (antibody, human IgG1, kappa)
# heavy: B1 heavy with T238N, D270E, R313Q, P398M, S402R
# light: B1 light
# notes: also called M103205H795-PK2; copies: 2 + 2
# B11: M103205H795-MY061/M103202L889-SK1 (antibody, human IgG1, kappa, name in EU numbering)
# heavy: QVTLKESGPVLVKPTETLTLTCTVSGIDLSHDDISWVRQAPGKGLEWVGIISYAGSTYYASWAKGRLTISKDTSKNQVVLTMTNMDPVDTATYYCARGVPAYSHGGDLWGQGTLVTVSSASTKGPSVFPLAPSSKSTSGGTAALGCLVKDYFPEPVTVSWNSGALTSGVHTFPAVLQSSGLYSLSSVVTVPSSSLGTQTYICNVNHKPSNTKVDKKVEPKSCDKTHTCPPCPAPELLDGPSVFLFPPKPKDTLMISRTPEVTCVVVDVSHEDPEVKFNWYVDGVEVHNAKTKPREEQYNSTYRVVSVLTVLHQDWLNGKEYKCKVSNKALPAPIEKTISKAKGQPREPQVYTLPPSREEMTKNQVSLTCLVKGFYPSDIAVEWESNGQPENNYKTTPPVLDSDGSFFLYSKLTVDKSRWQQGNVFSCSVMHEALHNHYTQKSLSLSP
# light: B1 light
# notes: as for B2
# B12: M103205H795-MY071/M103202L889-SK1 (antibody, human IgG1, kappa, name in EU numbering)
# heavy: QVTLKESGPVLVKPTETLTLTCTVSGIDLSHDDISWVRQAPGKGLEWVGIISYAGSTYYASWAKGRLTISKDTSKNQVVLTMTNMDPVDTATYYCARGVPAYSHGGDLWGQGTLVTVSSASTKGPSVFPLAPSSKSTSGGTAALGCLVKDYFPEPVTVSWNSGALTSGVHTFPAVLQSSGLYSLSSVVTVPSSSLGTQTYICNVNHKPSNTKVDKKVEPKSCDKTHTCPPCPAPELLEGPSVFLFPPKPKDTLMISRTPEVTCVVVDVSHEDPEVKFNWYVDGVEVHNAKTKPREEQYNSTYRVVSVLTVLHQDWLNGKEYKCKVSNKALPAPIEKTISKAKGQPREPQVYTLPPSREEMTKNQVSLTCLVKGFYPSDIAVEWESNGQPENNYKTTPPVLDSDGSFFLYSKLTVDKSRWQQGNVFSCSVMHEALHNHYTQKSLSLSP
# light: B1 light
# notes: as for B2
# B13: M103205H795-MY196/M103202L889-SK1 (antibody, human IgG1, kappa, name in EU numbering)
# heavy: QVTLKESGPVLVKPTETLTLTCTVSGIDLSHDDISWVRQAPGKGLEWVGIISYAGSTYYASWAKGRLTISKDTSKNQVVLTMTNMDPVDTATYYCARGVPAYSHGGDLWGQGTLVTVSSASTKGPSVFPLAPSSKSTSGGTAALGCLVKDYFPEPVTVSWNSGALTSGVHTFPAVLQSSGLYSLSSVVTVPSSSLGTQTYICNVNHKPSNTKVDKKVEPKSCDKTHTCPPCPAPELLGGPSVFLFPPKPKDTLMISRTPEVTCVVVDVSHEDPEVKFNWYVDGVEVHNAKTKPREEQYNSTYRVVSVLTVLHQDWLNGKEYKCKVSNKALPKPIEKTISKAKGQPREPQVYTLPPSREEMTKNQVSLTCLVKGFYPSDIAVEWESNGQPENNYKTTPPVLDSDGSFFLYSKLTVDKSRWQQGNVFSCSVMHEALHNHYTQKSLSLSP
# light: B1 light
# notes: as for B2
# B14: M103205H795-MY040/M103202L889-SK1 (antibody, human IgG1, kappa, name in EU numbering)
# heavy: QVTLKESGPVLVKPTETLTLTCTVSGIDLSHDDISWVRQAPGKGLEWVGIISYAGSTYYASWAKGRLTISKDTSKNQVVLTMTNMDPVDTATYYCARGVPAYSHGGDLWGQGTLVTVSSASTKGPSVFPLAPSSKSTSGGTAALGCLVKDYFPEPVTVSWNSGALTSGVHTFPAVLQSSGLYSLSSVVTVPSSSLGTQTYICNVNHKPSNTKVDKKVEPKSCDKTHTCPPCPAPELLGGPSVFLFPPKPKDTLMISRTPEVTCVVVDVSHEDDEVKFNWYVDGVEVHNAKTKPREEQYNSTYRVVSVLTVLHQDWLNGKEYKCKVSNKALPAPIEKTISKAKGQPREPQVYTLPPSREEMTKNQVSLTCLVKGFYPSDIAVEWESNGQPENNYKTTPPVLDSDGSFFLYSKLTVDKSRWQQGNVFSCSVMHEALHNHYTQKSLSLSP
# light: B1 light
# notes: as for B2
# Experiments:
# [1] = molecular target: T1, cynomolgus monkey FcγRIIIaS …; test: SPR, KD(SG1)/KD(variant)
# Protocol: (§1) The kinetic analysis of interactions between these antibodies and FcγR was carried out using BIACORE® T200 or BIACORE® 4000 (GE Healthcare). HBS-EP+ (GE Healthcare) was used as the running buffer, and the measurement temperature was set to 25° C. […] After the measurement, the antibody captured on the chip was washed off by allowing reaction with 10 mM glycine-HCl, pH1.5 and 25 mM NaOH so that the chip was regenerated and used repeatedly. The sensorgrams obtained as measurement results were analyzed by the 1:1 Langmuir binding model using the BIACORE® Evaluation Software to calculate the binding rate constant ka (L/mol/s) and dissociation rate constant kd (1/s), and the dissociation constant KD (mol/L) was calculated from these values. […] Regarding such interactions, KD values were calculated using the following 1:1 binding model described in BIACORE® T100 Software Handbook BR1006-48 Edition AE.
# [2] = molecular target: T1, cynomolgus monkey FcγRIIIaS …; test: SPR, antibody captured, FcγR analyte
# Protocol: as §1
# [3] = molecular target: T2, cynomolgus monkey FcγRIIb extracellular …; test: SPR Biacore, KD(SG1)/KD(variant)
# Protocol: as §1
# [4] = molecular target: T3, cynomolgus monkey FcγRIIa2 …; test: SPR Biacore, KD(SG1)/KD(variant)
# Protocol: as §1
# [5] = molecular target: T4, cynomolgus monkey FcγRIIa1 …; test: SPR Biacore, antibody captured, FcgR analyte
# [6] = molecular target: T4, cynomolgus monkey FcγRIIa1 …; test: SPR Biacore, KD(SG1)/KD(variant)
# Protocol: as §1
# [7] = molecular target: T3, cynomolgus monkey FcγRIIa2 …; test: SPR Biacore, antibody captured, FcgR analyte
# [8] = molecular target: T10, cynomolgus monkey FcγRIIIaS extracellular domain with C-terminal His-tag (cynomolgus monkey, UniProt A3RFZ7 21-206 (rhesus entry)); test: SPR (BIACORE), antibody captured, FcgR analyte
# T10 construct: also called cyno FcgRIIIaS; cynoFcγRIIIaS; not shown: His-tag added to the C-terminus
# [9] = molecular target: T5, cynomolgus monkey FcγRIIa1 …; test: SPR (BIACORE), antibody captured, FcgR analyte
# [10] = molecular target: T6, cynomolgus monkey FcγRIIa3 …; test: SPR (BIACORE), antibody captured, FcgR analyte
# [11] = molecular target: T10, cynomolgus monkey FcγRIIIaS …; test: SPR (BIACORE); KD of SG1 / KD of variant
# [12] = molecular target: T5, cynomolgus monkey FcγRIIa1 …; test: SPR (BIACORE); KD of SG1 / KD of variant
# [13] = molecular target: T7, human FcγRIIaR extracellular domain, …; test: SPR Biacore, KD(SG1)/KD(variant)
# Protocol: as §1
# [14] = molecular target: T8, cynomolgus monkey FcγRIIa3 …; test: SPR Biacore, KD(SG1)/KD(variant)
# Protocol: as §1
# [15] = molecular target: T9, human FcγRIIb extracellular domain, …; test: SPR Biacore, KD(SG1)/KD(variant)
# Protocol: as §1
# [16] = molecular target: T9, human FcγRIIb extracellular domain, …; test: SPR Biacore, antibody captured, FcgR analyte
binder,measurement,setting,value
B1,KD fold (SG1 = 1),[1],0.24 fold
same,Kd,[2],1.5 µM
B2,KD fold (SG1 = 1),[3],0.5 fold
B3,KD fold (SG1 = 1),[4],3.9 fold
B4,KD fold (SG1 = 1),[1],0.07 fold
same,Kd,[2],4.9 µM
B5,KD fold (SG1 = 1),[4],1.6 fold
same,Kd,[5],2.3 µM
B6,KD fold (SG1 = 1),[6],1 fold
same,Kd,[7],2.8 µM
B7,Kd,[8],5.4 µM
same,Kd,[9],1.4 µM
same,Kd,[10],7 µM
same,KD fold (SG1 = 1),[11],0.07 fold
same,KD fold (SG1 = 1),[12],2.5 fold
B8,Kd,[8],1.5 µM
same,KD fold (SG1 = 1),[11],0.24 fold
same,KD fold (SG1 = 1),[12],2.5 fold
B9,Kd,[5],0.51 µM
B10,KD fold (SG1 = 1),[1],0.09 fold
same,Kd,[2],3.9 µM
B11,KD fold (SG1 = 1),[3],0.4 fold
same,KD fold (SG1 = 1),[13],0.8 fold
same,Kd,[7],6.8 µM
B12,KD fold (SG1 = 1),[14],1.8 fold
same,KD fold (SG1 = 1),[15],1.5 fold
same,Kd,[16],3.1 µM
B13,Kd,[16],3.2 µM
B14,KD fold (SG1 = 1),[14],3.9 fold
same,KD fold (SG1 = 1),[13],0.9 fold
same,Kd,[5],5.5 µM
